Laboratory results taken from patent US20160297889A1 (TORAY INDUSTRIES, published 2016).
Where a chain is given by its changes, count along the chain named.

T1: CAPRIN-1 protein expressed on the membrane surface of human cancer cells (human, UniProt Q14444 2-709)
T1 sequence (looked up): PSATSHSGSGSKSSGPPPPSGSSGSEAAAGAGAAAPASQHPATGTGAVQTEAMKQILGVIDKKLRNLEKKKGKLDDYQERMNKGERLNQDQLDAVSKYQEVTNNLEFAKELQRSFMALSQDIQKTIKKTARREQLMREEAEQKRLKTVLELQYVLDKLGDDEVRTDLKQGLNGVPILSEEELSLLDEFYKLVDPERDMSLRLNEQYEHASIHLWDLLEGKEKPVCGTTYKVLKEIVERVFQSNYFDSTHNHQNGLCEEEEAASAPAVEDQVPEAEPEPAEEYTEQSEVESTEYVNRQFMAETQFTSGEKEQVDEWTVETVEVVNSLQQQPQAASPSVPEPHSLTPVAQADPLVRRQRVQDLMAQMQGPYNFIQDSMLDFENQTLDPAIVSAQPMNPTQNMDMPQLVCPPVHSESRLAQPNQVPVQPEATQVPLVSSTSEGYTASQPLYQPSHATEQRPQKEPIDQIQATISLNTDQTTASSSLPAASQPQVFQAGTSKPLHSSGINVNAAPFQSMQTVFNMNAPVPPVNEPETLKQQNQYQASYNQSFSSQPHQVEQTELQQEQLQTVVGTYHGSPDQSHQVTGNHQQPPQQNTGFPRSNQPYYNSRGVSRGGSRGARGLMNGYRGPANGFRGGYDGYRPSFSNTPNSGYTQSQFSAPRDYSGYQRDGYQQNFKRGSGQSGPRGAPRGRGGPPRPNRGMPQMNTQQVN

B1: human-rabbit chimeric anti-CAPRIN-1 antibody (antibody, V domains shown)
VH: QSLEESGGRLVTPGTPLTLTCTASGFSLSSHSLGWVRQAPGKGLEWIGDIRSGGSAYYANWAKGRFTISRTSTTVALKMTSLTTEDTATYFCTRTNGPSDLTNRLDLWGQGTLVTVSS
VL: QVLTQTPSSVSAAVGGTVTINCQASQSLYNNENLAWFQQKPGQPPKRLIYGASTLASGVSSRFKGSGSGTQFTLTIGDVQCDDAAIYYCLGEFSCGSADCFAFGGGTEVVVK
B2: humanized antibody #3 (antibody, V domains shown)
VH: EVQLVESGGGLVQPGGSLRLSCAASGFSLSSHSLGWVRQAPGKGLEWIGDIRSGGSAYYANWAKGRFTISRDNSKNTLYLQMNSLRAEDTAVYYCTRTNGPSDLTNRLDLWGQGTLVTVSS
VL: EQVLTQSPSSLSASVGDRVTINCQASQSLYNNENLAWFQQKPGKVPKRLIYGASTLASGVSSRFSGSGSGTEFTLTISNLQPEDFAIYYCLGEFSCGSADCFAFGGGTKVEIK
B3: humanized antibody #5 (antibody, V domains shown)
VH: B2 VH with Y94F
VL: B2 VL
B4: humanized antibody #9 (antibody, V domains shown)
VH: B2 VH with V2Q, Q3S
VL: B2 VL with E1D, Q2I, N79S, P82C
B5: humanized antibody #4 (antibody, V domains shown)
VH: B2 VH with Y94F
VL: B2 VL with Q2I, I87T

Target: T1, CAPRIN-1 protein expressed on the …
Assay: cell-based or functional assay

| Binder | ADCC cytotoxic activity (51Cr release) on 22Rv1 [%] | ADCC cytotoxic activity (51Cr release) on A-673 [%] | ADCC cytotoxic activity (51Cr release) on BT-474 [%] | ADCC cytotoxic activity (51Cr release) on Caki-2 [%] | ADCC cytotoxic activity (51Cr release) on FaDu [%] | ADCC cytotoxic activity (51Cr release) on G-361 [%] | ADCC cytotoxic activity (51Cr release) on HEC-1-A [%] | ADCC cytotoxic activity (51Cr release) on HT-29 [%] | ADCC cytotoxic activity (51Cr release) on HT-1080 [%] | ADCC cytotoxic activity (51Cr release) on HT-1376 [%] | ADCC cytotoxic activity (51Cr release) on Hep3B [%] | ADCC cytotoxic activity (51Cr release) on IM-9 [%] | ADCC cytotoxic activity (51Cr release) on MDA-MB-361 [%] | ADCC cytotoxic activity (51Cr release) on NCI-H2452 [%] | ADCC cytotoxic activity (51Cr release) on NCI-N87 [%] | ADCC cytotoxic activity (51Cr release) on NT/D1 [%] | ADCC cytotoxic activity (51Cr release) on OCI-AML5 [%] | ADCC cytotoxic activity (51Cr release) on OE33 [%] | ADCC cytotoxic activity (51Cr release) on Panc10.5 [%] | ADCC cytotoxic activity (51Cr release) on QG56 [%] | further results |
| --- | --- | --- | --- | --- | --- | --- | --- | --- | --- | --- | --- | --- | --- | --- | --- | --- | --- | --- | --- | --- | --- |
| B1 | ≥ 38 | ≥ 40 | ≥ 46 | ≥ 26 | ≥ 35 | ≥ 15 | ≥ 40 | ≥ 35 | ≥ 20 | ≥ 28 | ≥ 21 | ≥ 27 | ≥ 40 | ≥ 31 | ≥ 34 | ≥ 25 | ≥ 15 | ≥ 30 | ≥ 24 | ≥ 38 | ADCC cytotoxic activity (51Cr release) on RD-ES: ≥ 31%; ADCC cytotoxic activity (51Cr release) on RPM11666: ≥ 30%; ADCC cytotoxic activity (51Cr release) on Ramos: ≥ 15%; ADCC cytotoxic activity (51Cr release) on SKOV3: ≥ 27%; ADCC cytotoxic activity (51Cr release) on T24: ≥ 30%; ADCC cytotoxic activity (51Cr release) on TGBC14TKB: ≥ 25%; ADCC cytotoxic activity (51Cr release) on TT: ≥ 30%; ADCC cytotoxic activity (51Cr release) on U-87MG: ≥ 24% |
| B2 | ≥ 45 | ≥ 46 | ≥ 50 | ≥ 33 | ≥ 40 | ≥ 21 | ≥ 45 | ≥ 40 | ≥ 25 | ≥ 40 | ≥ 25 | ≥ 30 | ≥ 45 | ≥ 39 | ≥ 38 | ≥ 30 | ≥ 18 | ≥ 33 | ≥ 30 | ≥ 42 | ADCC cytotoxic activity (51Cr release) on RD-ES: ≥ 40%; ADCC cytotoxic activity (51Cr release) on RPM11666: ≥ 36%; ADCC cytotoxic activity (51Cr release) on Ramos: ≥ 18%; ADCC cytotoxic activity (51Cr release) on SKOV3: ≥ 31%; ADCC cytotoxic activity (51Cr release) on T24: ≥ 33%; ADCC cytotoxic activity (51Cr release) on TGBC14TKB: ≥ 30%; ADCC cytotoxic activity (51Cr release) on TT: ≥ 35%; ADCC cytotoxic activity (51Cr release) on U-87MG: ≥ 29% |
| B3 | ≥ 45 | ≥ 46 | ≥ 50 | ≥ 33 | ≥ 40 | ≥ 21 | ≥ 45 | ≥ 40 | ≥ 25 | ≥ 40 | ≥ 25 | ≥ 30 | ≥ 45 | ≥ 39 | ≥ 38 | ≥ 30 | ≥ 18 | ≥ 33 | ≥ 30 | ≥ 42 | ADCC cytotoxic activity (51Cr release) on RD-ES: ≥ 40%; ADCC cytotoxic activity (51Cr release) on RPM11666: ≥ 36%; ADCC cytotoxic activity (51Cr release) on Ramos: ≥ 18%; ADCC cytotoxic activity (51Cr release) on SKOV3: ≥ 31%; ADCC cytotoxic activity (51Cr release) on T24: ≥ 33%; ADCC cytotoxic activity (51Cr release) on TGBC14TKB: ≥ 30%; ADCC cytotoxic activity (51Cr release) on TT: ≥ 35%; ADCC cytotoxic activity (51Cr release) on U-87MG: ≥ 29% |
| B4 | ≥ 38 | ≥ 40 | ≥ 46 | ≥ 26 | ≥ 35 | ≥ 15 | ≥ 40 | ≥ 35 | ≥ 20 | ≥ 28 | ≥ 21 | ≥ 27 | ≥ 40 | ≥ 31 | ≥ 34 | ≥ 25 | ≥ 15 | ≥ 30 | ≥ 24 | ≥ 38 | ADCC cytotoxic activity (51Cr release) on RD-ES: ≥ 31%; ADCC cytotoxic activity (51Cr release) on RPM11666: ≥ 30%; ADCC cytotoxic activity (51Cr release) on Ramos: ≥ 15%; ADCC cytotoxic activity (51Cr release) on SKOV3: ≥ 27%; ADCC cytotoxic activity (51Cr release) on T24: ≥ 30%; ADCC cytotoxic activity (51Cr release) on TGBC14TKB: ≥ 25%; ADCC cytotoxic activity (51Cr release) on TT: ≥ 30%; ADCC cytotoxic activity (51Cr release) on U-87MG: ≥ 24% |
| B5 | ≥ 45 | ≥ 46 | ≥ 50 | ≥ 33 | ≥ 40 | ≥ 21 | ≥ 45 | ≥ 40 | ≥ 25 | ≥ 40 | ≥ 25 | ≥ 30 | ≥ 45 | ≥ 39 | ≥ 38 | ≥ 30 | ≥ 18 | ≥ 33 | ≥ 30 | ≥ 42 | ADCC cytotoxic activity (51Cr release) on RD-ES: ≥ 40%; ADCC cytotoxic activity (51Cr release) on RPM11666: ≥ 36%; ADCC cytotoxic activity (51Cr release) on Ramos: ≥ 18%; ADCC cytotoxic activity (51Cr release) on SKOV3: ≥ 31%; ADCC cytotoxic activity (51Cr release) on T24: ≥ 33%; ADCC cytotoxic activity (51Cr release) on TGBC14TKB: ≥ 30%; ADCC cytotoxic activity (51Cr release) on TT: ≥ 35%; ADCC cytotoxic activity (51Cr release) on U-87MG: ≥ 29% |
